Test results taken from paper PMC7199733 (Cell, 2020).

Assays:
[1] = target: MERS VHH-55 (His-tagged, mammalian expression) (llama); test: SPR
MERS-CoV S1 protein = MERS-CoV S1 protein (MERS-CoV England1, UniProt K9N5Q8)
MERS-CoV RBD protein = MERS-CoV RBD protein (MERS-CoV England1, UniProt K9N5Q8)
[2] = target: MERS-CoV RBD (crystallised, tag and glycans removed) (MERS-CoV England1, UniProt K9N5Q8)
[3] = target: DPP4 protein (recombinant, soluble) (UniProt P27487 40-766); test: BLI
Sequence of DPP4 protein (recombinant, soluble) (P27487 40-766): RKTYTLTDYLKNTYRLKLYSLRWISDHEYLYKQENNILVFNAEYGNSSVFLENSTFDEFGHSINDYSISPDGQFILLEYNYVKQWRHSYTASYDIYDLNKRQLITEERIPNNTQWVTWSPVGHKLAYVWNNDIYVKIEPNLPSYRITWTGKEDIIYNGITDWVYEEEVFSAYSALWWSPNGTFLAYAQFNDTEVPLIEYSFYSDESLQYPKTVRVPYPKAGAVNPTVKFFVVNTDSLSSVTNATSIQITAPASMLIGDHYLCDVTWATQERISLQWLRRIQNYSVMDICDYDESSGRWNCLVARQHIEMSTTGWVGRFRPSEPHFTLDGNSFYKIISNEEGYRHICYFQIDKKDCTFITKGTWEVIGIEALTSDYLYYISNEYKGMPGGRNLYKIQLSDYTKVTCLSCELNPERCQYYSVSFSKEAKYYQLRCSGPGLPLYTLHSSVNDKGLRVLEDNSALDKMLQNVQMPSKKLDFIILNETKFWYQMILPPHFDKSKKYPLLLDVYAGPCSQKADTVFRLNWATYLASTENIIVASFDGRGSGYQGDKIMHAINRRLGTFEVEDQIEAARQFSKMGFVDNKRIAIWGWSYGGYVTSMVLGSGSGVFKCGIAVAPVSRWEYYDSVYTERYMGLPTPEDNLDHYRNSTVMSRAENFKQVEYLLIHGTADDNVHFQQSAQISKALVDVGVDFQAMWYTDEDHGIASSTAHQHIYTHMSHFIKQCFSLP

Sequence of MERS-CoV S1 protein (K9N5Q8 18-751): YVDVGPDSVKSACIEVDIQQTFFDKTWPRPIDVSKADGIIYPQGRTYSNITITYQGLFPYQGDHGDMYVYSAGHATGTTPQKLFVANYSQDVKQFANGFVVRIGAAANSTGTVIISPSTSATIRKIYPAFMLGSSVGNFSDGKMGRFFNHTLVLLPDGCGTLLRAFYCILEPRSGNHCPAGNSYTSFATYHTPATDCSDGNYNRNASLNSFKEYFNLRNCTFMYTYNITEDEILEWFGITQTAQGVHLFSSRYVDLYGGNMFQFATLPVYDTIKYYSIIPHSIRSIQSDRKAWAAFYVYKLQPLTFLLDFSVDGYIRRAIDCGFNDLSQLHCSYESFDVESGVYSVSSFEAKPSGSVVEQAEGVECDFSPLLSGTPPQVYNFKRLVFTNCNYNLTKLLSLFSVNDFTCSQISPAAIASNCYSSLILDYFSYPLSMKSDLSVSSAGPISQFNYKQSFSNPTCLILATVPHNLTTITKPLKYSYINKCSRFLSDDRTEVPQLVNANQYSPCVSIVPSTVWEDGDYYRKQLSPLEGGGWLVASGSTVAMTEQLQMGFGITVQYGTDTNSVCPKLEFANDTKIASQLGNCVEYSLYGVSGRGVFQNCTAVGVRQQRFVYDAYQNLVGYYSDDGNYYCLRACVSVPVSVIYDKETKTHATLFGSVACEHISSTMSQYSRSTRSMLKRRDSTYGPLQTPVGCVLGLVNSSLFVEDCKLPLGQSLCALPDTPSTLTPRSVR

Molecule: MERS-CoV RBD protein (from UniProt K9N5Q8 367-589) (domain or fragment)
- Kd [1]: 79.2 pM

B1: MERS VHH-55 (VHH)
VHH: QVQLQESGGGLVQAGGSLRLSCVASGSIFSINAMDWYRQAPGKQRELVAGITSGGSTNYGDFVKGRFTISRDNAKNTVYLQMDSLKPEDTAVYYCAAEVGGWGPPRPDYWGHGTQVTVSS
- binding result (MERS-CoV S1 protein): binds
- binding result (MERS-CoV RBD protein): binds
- binding result [2]: binds

B2: Fc-tagged MERS-CoV RBD (domain or fragment)
chain: EAKPSGSVVEQAEGVECDFSPLLSGTPPQVYNFKRLVFTNCNYNLTKLLSLFSVNDFTCSQISPAAIASNCYSSLILDYFSYPLSMKSDLSVSSAGPISQFNYKQSFSNPTCLILATVPHNLTTITKPLKYSYINKCSRFLSDDRTEVPQLVNANQYSPCVSIVPSTVWEDGDYYRKQLSPLEGGGWLVASGSTVAMTEQLQMGFGITVQYGTDTNSVCPKLE
- binding result [3]: binds
